Assay results: publication PMC4632033

Target: T1, XisR (YdaQ), rac excisionase (Escherichia coli K-12 (BW25113; MS match MG1655)) (UniProt P76057)
T1 sequence: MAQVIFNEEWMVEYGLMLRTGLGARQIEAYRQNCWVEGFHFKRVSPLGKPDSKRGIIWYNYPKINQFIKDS
Test: EMSA
Conditions: LightShift Chemiluminescent EMSA kit protocol (binding buffer not stated), 25 C, 1 h; 0.5x TBE polyacrylamide gel; protein stored in 20 mM Tris-HCl, 500 mM …

Row | Sequence | binding
1 | CTATATGCCTTTGATGCGGAGGAATGAATGTGATGGGAGTGATGTATCTGAATAGTTGAAAAACCGCAGTCACGTCGTATGCAAGAACGTGCTGCGGTTGGTTTGACTTTGATTGAGACGTTTTGGAATTTTTTTCGGTGGCAAAAATGGGGCAAAACGCTGCAAAAGGGGCAAAAAAGGGGCAAAAAAAGAGTGGATTATCGTAGCTTATTGTTGTCGCTGATGATATTTAACACATTGAAAAATAAGTAAAATACTTATGAGTCAGAGAGTTGTGATTTTTGCCCTTAC (double strand) [AttM] | no binding
2 | AGATTTCTTATGCTGGGCGTTCCGGCATGACGCATACTCTTCTGATGCCATATAACGAATTGAGTCGCTTTTAAATGTCGCAAAATCAAGAAATTAGTAAGAAAGAACAATACAACCTGAACAAGTAAGGGCAAAAATCACAACTCTCTGACTCATAAGTATTTTACTTATTTTTCAATGTGTTAAATATCATCAGCGACAACAATAAGCTACGATAATCCACTCTTTTTTTGCCCCTTTTTTGCCCCTTTTGCAGCGTTTTGCCCCATTTTTGCCACCGAAAAAAATTCCAAA (double strand) [AttR] | binds
